US20250163161A1 (TECHNISCHE UNIVERSIT T DARMSTADT, published 2025)
Read-outs that look alike come from different tables or passages of the source.

What was measured:
[1] = target: T1, epidermal growth factor receptor (EGFR), soluble, as used in BLI (UniProt P00533 25-645); experiment: BLI
T1 construct: extracellular domain; also called EGFR-ECD

[2] = target: T2, programmed death-ligand 1 (PD-L1), soluble, as used in BLI (UniProt Q9NZQ7 19-238); experiment: BLI
T2 construct: extracellular domain; also called PD-L1-ECD

[3] = target: 273-621 (human, UniProt P00533); experiment: flow cytometry on yeast cells displaying truncated EGFR fragments; detection with goat anti-human Fc PE
[4] = target: 294-543 (human, UniProt P00533); experiment: as above
[5] = target: 475-621 (human, UniProt P00533); experiment: as above
[6] = target: T1, epidermal growth factor receptor …; experiment: BLI; remark: listed apart in the source
[7] = target: T2, programmed death-ligand 1 (PD-L1), …; experiment: BLI; remark: listed apart in the source
[8] = target: PD-L1 on cells (A431; cells of the Promega PD-L1 blockade assay kit) (UniProt Q9NZQ7 19-290); experiment: cell-based or functional assay
[9] = target: T3, EGFR and PD-L1 on EGFR/PD-L1 double positive A431 cells (UniProt P00533 25-1210; Q9NZQ7 19-290); experiment: flow cytometry on EGFR/PD-L1 double-positive A431 cells, anti-human Fc PE detection
T3 construct: whole, on cells; Two separate cell-surface proteins, not a complex; also called A431 (EGFR+/PD-L1+)

[10] = target: T4, IL-6R on cells (THP-1, A549) (UniProt P08887 20-468, limits assumed); experiment: flow cytometry on THP-1 cells; legend: - represents no significant binding
T4 construct: whole, on cells; also called THP-1 (IL-6R+/PD-L1+)
T4 sequence (looked up): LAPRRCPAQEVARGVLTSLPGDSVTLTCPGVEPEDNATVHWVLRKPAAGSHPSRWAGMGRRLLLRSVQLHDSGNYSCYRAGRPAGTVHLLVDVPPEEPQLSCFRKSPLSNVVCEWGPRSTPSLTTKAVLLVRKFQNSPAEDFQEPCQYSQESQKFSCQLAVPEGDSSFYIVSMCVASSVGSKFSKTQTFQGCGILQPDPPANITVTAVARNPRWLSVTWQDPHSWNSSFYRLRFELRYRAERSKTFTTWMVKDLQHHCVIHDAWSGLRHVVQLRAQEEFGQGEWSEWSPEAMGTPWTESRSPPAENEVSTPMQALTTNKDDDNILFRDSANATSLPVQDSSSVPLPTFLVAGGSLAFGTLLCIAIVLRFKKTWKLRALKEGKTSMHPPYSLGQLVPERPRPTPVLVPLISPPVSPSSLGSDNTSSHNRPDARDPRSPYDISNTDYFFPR

[11] = target: T5, CD3 (CD3ε) on cells (Jurkat; TCR/CD3 effector cells) (UniProt P07766 23-207, limits assumed); experiment: flow cytometry; Jurkat cells with antibody mixed with Calcein AM-stained A431 cells; anti-human Fc PE detection; Q3 = CD3-binding on Jurkats
T5 construct: whole, on cells; that number is the CD3ε entry; also called Jurkat (CD3+)

[12] = target: T6, His6-PD-L1-TS (soluble, monomeric PD-L1) (UniProt Q9NZQ7 19-238); experiment: BLI, antibody on AHC biosensors
T6 construct: not shown: TwinStrepII tag (TS)

[13] = target: T7, His6-EGFR-TS (soluble, monomeric EGFR) (UniProt P00533 25-645); experiment: BLI, antibody on AHC biosensors
T7 construct: not shown: TwinStrepII tag (TS)

[14] = target: T8, soluble IL-6R (sIL-6R-TS) (UniProt P08887 20-358); experiment: BLI simultaneous binding; antibody on AHC biosensors; 200 nM IL-6R, then 500 nM EGFR, then 500 nM PD-L1, 300 s each
T8 construct: not shown: TwinStrepII tag (TS)
T8 sequence (looked up): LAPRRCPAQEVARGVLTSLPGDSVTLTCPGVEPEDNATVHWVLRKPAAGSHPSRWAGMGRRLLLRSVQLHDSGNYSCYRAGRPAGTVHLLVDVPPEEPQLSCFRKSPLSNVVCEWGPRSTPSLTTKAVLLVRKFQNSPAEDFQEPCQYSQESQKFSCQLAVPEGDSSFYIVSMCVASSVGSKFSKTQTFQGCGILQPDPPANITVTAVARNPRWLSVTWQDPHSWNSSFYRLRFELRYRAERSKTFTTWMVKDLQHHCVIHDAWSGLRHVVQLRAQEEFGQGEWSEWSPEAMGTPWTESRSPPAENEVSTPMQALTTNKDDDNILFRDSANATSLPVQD

[15] = target: T3, EGFR and PD-L1 on EGFR/PD-L1 double …; experiment: flow cytometry on A431 cells
[16] = target: T3, EGFR and PD-L1 on EGFR/PD-L1 double …; experiment: flow cytometry; Jurkat cells with antibody mixed with Calcein AM-stained A431 cells; anti-human Fc PE detection; Q2 = PE-positive Calcein-stained A431 events; Neg Ctrl Q2 0.13
[17] = target: T8, soluble IL-6R (sIL-6R-TS); experiment: BLI, antibody on AHC biosensors

T2 sequence (Q9NZQ7 19-238): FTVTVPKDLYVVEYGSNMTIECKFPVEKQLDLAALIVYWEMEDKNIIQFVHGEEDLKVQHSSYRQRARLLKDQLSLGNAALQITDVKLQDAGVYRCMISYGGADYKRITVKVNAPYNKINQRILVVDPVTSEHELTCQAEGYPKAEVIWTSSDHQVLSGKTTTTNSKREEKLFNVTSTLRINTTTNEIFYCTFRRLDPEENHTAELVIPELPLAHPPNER
T6 sequence (Q9NZQ7 other isoform, or with tags, fused parts or gaps): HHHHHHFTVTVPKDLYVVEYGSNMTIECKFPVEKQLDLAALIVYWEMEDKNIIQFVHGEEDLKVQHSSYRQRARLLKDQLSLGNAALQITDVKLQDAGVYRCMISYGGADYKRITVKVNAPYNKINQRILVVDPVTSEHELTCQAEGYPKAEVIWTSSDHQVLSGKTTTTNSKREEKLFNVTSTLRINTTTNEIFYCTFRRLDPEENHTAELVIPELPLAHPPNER
T5 sequence (P07766 23-207 limits assumed): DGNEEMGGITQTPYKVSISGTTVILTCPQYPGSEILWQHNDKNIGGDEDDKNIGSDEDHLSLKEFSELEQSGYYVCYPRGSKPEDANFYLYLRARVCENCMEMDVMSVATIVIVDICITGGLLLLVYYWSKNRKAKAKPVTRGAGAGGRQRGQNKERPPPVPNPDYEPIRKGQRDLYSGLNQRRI
Sequence of PD-L1 on cells (A431; cells of the Promega PD-L1 blockade assay kit) (Q9NZQ7 19-290): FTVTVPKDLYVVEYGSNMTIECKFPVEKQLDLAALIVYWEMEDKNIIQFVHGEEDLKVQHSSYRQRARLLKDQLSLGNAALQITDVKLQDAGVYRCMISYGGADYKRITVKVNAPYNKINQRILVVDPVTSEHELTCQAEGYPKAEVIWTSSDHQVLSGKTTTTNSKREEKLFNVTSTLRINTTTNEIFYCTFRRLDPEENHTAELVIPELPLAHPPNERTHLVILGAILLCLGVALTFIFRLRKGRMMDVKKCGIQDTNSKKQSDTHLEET

| Binder | binding result [10] | Kd [12] [nM] | Kd [13] [nM] | binding result [14] | On-cell affinity [15] [nM] | Q2 (FITC+/PE+) % of events [16] [%] | Kd [17] [nM] | further results |
| --- | --- | --- | --- | --- | --- | --- | --- | --- |
| HCP-LCE (heavy chain PD-L1-light chain EGFR) Two-in-One antibody (bispecific antibody, human IgG1, lambda, L234A L235A, V domains shown, Symmetric full-length IgG; heavy chain is the ICI2 heavy chain, lambda CL; also called 2in1) VH: AVTLDESGGGLQTPGGALSLVCKASGFDFSSYDMAWVRQAPGKGLEWVAGIKSNGPWTNYGAAVKGRATISRDNGQSTVRLQLNNLRAEDTAIYYCAKPGAGYVGWDAAGTIDSWGHGTEVIVSS VL: ALTQPSSVSANLGETVKITCSGGAYSDCGWYQQKSPGSAPVTVIYYNDKRPSDIPSRFSGSTFGSTATLTITGVQAEDEAVYYCGGYDSRTGYVGVFGAGTTLTVLG | – | – | – | – | – | – | – | Kd [1]: 236 nM; Kd [2]: 78.3 nM; binding result [3]: no binding; binding result [4]: no binding; binding result [5]: no binding; Kd [6]: 236 nM; koff [6]: 0.0981 s⁻¹; kon [6]: 415000 M⁻¹ s⁻¹; Kd [7]: 78.3 nM; koff [7]: 0.0762 s⁻¹; kon [7]: 973000 M⁻¹ s⁻¹; EC50, cell-based PD-1/PD-L1 blockage assay (luciferase activity) [8]: 214 nM; EC50 [9]: 1.37 nM |
| (αCD3ε)K+H (bispecific antibody, Control variant with anti-CD3ε scFv fused to the N-terminus of the VH of the knob chain; not shown: CH1 and Knob-Fc (IgG1 LALA) with Twin-StrepII tag; CH1 and Hole-Fc (IgG1 LALA) with His6 tag) heavy 1: not shown heavy 2: AVTLDESGGGLQTPGGALSLVCKASGFDFSSYDMAWVRQAPGKGLEWVAGIKSNGPWTNYGAAVKGRATISRDNGQSTVRLQLNNLRAEDTAIYYCAKPGAGYVGWDAAGTIDSWGHGTEVIVSS light: ALTQPSSVSANLGETVKITCSGGAYSDCGWYQQKSPGSAPVTVIYYNDKRPSDIPSRFSGSTFGSTATLTITGVQAEDEAVYYCGGYDSRTGYVGVFGAGTTLTVLGQPKANPTVTLFPPSSEELQANKATLVCLISDFYPGAVTVAWKADGSPVKAGVETTKPSKQSNNKYAASSYLSLTPEQWKSHRSYSCQVTHEGSTVEKTVAPTECS | no binding | 108 | 236 | no binding (tested: 200 nM) | 1.82 | 15 | – | – |
| (αCD3ε)K(αIL-6R)+H(αIL-6R) TriTECM (bispecific antibody, Fabs from HCP-LCE; effector-silenced IgG1 LALA; also called scFv(VH)-IgG1(H)-scFv2) heavy 1: not shown heavy 2: AVTLDESGGGLQTPGGALSLVCKASGFDFSSYDMAWVRQAPGKGLEWVAGIKSNGPWTNYGAAVKGRATISRDNGQSTVRLQLNNLRAEDTAIYYCAKPGAGYVGWDAAGTIDSWGHGTEVIVSSASTKGPSVFPLAPSSKSTSGGTAALGCLVKDYFPEPVTVSWNSGALTSGVHTFPAVLQSSGLYSLSSVVTVPSSSLGTQTYICNVNHKPSNTKVDKRVEPKSCDKTHTCPPCPAPEAAGGPSVFLFPPKPKDTLMISRTPEVTCVVVDVSHEDPEVKFNWYVDGVEVHNAKTKPREEQYNSTYRVVSVLTVLHQDWLNGKEYKCKVSNKALPAPIEKTISKAKGQPREPQVYTLPPSREEMTKNQVSLSCAVKGFYPSDIAVEWESNGQPENNYKTTPPVLDSDGSFFLVSKLTVDKSRWQQGNVFSCSVMHEALHNRFTQKSLSLSPGGSHHHHHHGGGGSGGGGSGGGGSSEVQLVESGGGLVQPGRSLRLSCAASRFTFDDYAMHWVRQAPGKGLEWVSGISWNSGRIGYADSVKGRFTISRDNAENSLFLQMNGLRAEDTALYYCAKGRDSFDIWGQGTMVTVSSAGGGGSGGGGSGGGGSSDIQMTQSPSSVSASVGDRVTITCRASQGISSWLAWYQQKPGKAPKLLIYGASSLESGVPSRFSGSGSGTDFTLTISSLQPEDFASYYCQQANSFPYTFGQGTKLEIKR light: ALTQPSSVSANLGETVKITCSGGAYSDCGWYQQKSPGSAPVTVIYYNDKRPSDIPSRFSGSTFGSTATLTITGVQAEDEAVYYCGGYDSRTGYVGVFGAGTTLTVLGQPKANPTVTLFPPSSEELQANKATLVCLISDFYPGAVTVAWKADGSPVKAGVETTKPSKQSNNKYAASSYLSLTPEQWKSHRSYSCQVTHEGSTVEKTVAPTECS | – | 130 | 271 | – | 12.3 | 16.5 | 2.71 | – |

Continued, in another order:

| binding result [10] | Kd [12] [nM] | Kd [13] [nM] | binding result [14] | On-cell affinity [15] [nM] | Q2 (FITC+/PE+) % of events [16] [%] | Kd [17] [nM] | Binder | further results |
| --- | --- | --- | --- | --- | --- | --- | --- | --- |
| no binding | 92.9 | 173 | no binding (tested: 200 nM) | 2.5 | 14 | – | K+H (parental two-in-one antibody in Knob-into-Hole, effector-silenced LALA IgG1 format) (bispecific antibody, V domains shown, HCP-LCE Fabs on IgG1 LALA Knob-into-Hole Fc; also called parental K+H antibody) VH: AVTLDESGGGLQTPGGALSLVCKASGFDFSSYDMAWVRQAPGKGLEWVAGIKSNGPWTNYGAAVKGRATISRDNGQSTVRLQLNNLRAEDTAIYYCAKPGAGYVGWDAAGTIDSWGHGTEVIVSS VL: ALTQPSSVSANLGETVKITCSGGAYSDCGWYQQKSPGSAPVTVIYYNDKRPSDIPSRFSGSTFGSTATLTITGVQAEDEAVYYCGGYDSRTGYVGVFGAGTTLTVLG | binding result [11]: no binding |
| – | – | 172 | – | 21.2 | 12.2 | 1.8 | K(αCD3ε)+H(αIL-6R) TriTECM (bispecific antibody, Fabs from HCP-LCE; effector-silenced IgG1 LALA; also called IgG1(H)-scFv2) heavy 1: not shown heavy 2: AVTLDESGGGLQTPGGALSLVCKASGFDFSSYDMAWVRQAPGKGLEWVAGIKSNGPWTNYGAAVKGRATISRDNGQSTVRLQLNNLRAEDTAIYYCAKPGAGYVGWDAAGTIDSWGHGTEVIVSSASTKGPSVFPLAPSSKSTSGGTAALGCLVKDYFPEPVTVSWNSGALTSGVHTFPAVLQSSGLYSLSSVVTVPSSSLGTQTYICNVNHKPSNTKVDKRVEPKSCDKTHTCPPCPAPEAAGGPSVFLFPPKPKDTLMISRTPEVTCVVVDVSHEDPEVKFNWYVDGVEVHNAKTKPREEQYNSTYRVVSVLTVLHQDWLNGKEYKCKVSNKALPAPIEKTISKAKGQPREPQVYTLPPSREEMTKNQVSLSCAVKGFYPSDIAVEWESNGQPENNYKTTPPVLDSDGSFFLVSKLTVDKSRWQQGNVFSCSVMHEALHNRFTQKSLSLSPGGSHHHHHHGGGGSGGGGSGGGGSSEVQLVESGGGLVQPGRSLRLSCAASRFTFDDYAMHWVRQAPGKGLEWVSGISWNSGRIGYADSVKGRFTISRDNAENSLFLQMNGLRAEDTALYYCAKGRDSFDIWGQGTMVTVSSAGGGGSGGGGSGGGGSSDIQMTQSPSSVSASVGDRVTITCRASQGISSWLAWYQQKPGKAPKLLIYGASSLESGVPSRFSGSGSGTDFTLTISSLQPEDFASYYCQQANSFPYTFGQGTKLEIKR light: ALTQPSSVSANLGETVKITCSGGAYSDCGWYQQKSPGSAPVTVIYYNDKRPSDIPSRFSGSTFGSTATLTITGVQAEDEAVYYCGGYDSRTGYVGVFGAGTTLTVLGQPKANPTVTLFPPSSEELQANKATLVCLISDFYPGAVTVAWKADGSPVKAGVETTKPSKQSNNKYAASSYLSLTPEQWKSHRSYSCQVTHEGSTVEKTVAPTECS | – |
